How the values were obtained:
[1] = biological target: T1, human GP130 extracellular domain expressed with a C-terminal myc-myc-hexahistidine tag (human, UniProt P40189 23-619); experiment: SPR, bsAb captured by anti-hFc, 25C
T1 construct: also called hGP130-MMH; hGP130-mmH
Protocol: (§1) Equilibrium dissociation constants (KD values) for LEPR and GP130 binding to purified anti-LEPR/GP130 bispecific antibodies were determined using a real-time surface plasmon resonance biosensor using a Biacore 4000 instrument. All binding studies were performed in 10 mM HEPES, 150 mM NaCl, 3 mM EDTA, and 0.05% v/v Surfactant Tween-20, pH 7.4 (HBS-ET) running buffer at 25° C. and 37° C. The Biacore sensor surface was first derivatized by amine coupling with a monoclonal mouse anti-human Fc antibody (GE, #BR-1008-39) to capture anti-LEPR/GP130 bispecific antibodies. […] Different concentrations of LEPR or GP130 reagents were first prepared in HBS-ET running buffer (100 nM-3.7 nM; 3-fold serial dilution) and were injected over anti-human Fc captured anti-LEPR/GP130 bispecific antibody surface for 4 minutes at a flow rate of 30 μL/minute, while the dissociation of bispecific antibody bound LEPR or GP130 reagent was monitored for 10 minutes in HBS-ET running buffer. Kinetic association (kₐ) and dissociation (kd) rate constants were determined by fitting the real-time binding sensorgrams to a 1:1 binding model with mass transport limitation using Scrubber 2.0c curve-fitting software. Binding dissociation equilibrium constants (KD) and dissociative half-lives (t ½) were calculated from the kinetic rate constants as: […]

[2] = biological target: T2, Macaca Fascicularis GP130 extracellular domain expressed with a C-terminal myc-myc-hexahistidine tag (Macaca fascicularis, UniProt P40189 23-619 (human entry)); experiment: SPR, bsAb captured by anti-hFc, 25C
T2 construct: also called mfGP130-MMH; mfGP130-mmH
T2 chain: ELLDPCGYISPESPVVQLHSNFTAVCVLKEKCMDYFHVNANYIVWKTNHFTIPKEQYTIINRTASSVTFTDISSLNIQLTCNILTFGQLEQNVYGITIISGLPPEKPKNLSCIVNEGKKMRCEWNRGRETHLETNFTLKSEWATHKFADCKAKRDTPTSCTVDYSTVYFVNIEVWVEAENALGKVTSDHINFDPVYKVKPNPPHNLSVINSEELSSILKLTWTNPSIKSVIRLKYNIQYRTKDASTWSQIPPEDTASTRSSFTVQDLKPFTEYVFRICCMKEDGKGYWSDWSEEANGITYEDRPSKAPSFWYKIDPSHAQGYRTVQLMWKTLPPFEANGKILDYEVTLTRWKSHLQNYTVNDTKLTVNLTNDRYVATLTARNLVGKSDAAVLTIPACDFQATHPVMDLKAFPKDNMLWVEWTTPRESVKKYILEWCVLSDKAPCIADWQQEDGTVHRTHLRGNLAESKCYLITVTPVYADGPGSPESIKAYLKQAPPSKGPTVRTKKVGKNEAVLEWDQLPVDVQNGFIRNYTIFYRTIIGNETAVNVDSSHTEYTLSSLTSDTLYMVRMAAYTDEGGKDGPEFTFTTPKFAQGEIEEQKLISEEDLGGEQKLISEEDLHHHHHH
Protocol: as §1

[3] = biological target: T1, human GP130 extracellular domain …; experiment: SPR, bsAb captured by anti-hFc, 37C
Protocol: as §1

[4] = biological target: T2, Macaca Fascicularis GP130 extracellular …; experiment: SPR, bsAb captured by anti-hFc, 37C
Protocol: as §1

B1: bsAb19139D (bispecific antibody, V domains shown)
VH 1: QVQLVESGGGVVQPGRSLRLSCTASGFTFSSYAMYWVRQAPGKGLEWVSVIYYDGSYKYYADSVKGRFTISRDNSKNTLYLQMDSLRAEDTAVYYCASYNWNYWYFDFWGRGTLVTVSS
VH 2: QVQLVESGGGVVQPGGSLRLSCAASGFTFSTYDIHWVRQAPGKGLEWVAVISFDGSNRNYGDSVKGRFTISRDNSDNTLFLEMNNLRFEDTAVYYCAKEGYGVDFQHWGQGTLVTVSS
VL: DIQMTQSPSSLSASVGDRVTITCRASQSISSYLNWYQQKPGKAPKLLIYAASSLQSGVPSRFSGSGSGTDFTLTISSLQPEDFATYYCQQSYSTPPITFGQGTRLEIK
notes: LEPR x GP130 bispecific with common light chain
100 nM hGP130-MMH Bound (RU) [1]: 6 RU | 100 nM mfGP130-MMH Bound (RU) [2]: 6 RU | 100 nM hGP130-MMH Bound (RU) [3]: 3 RU | binding result [3]: no binding (tested: 100 nM) | 100 nM mfGP130-MMH Bound (RU) [4]: 2 RU | binding result [4]: no binding (tested: 100 nM)

B2: bsAb19142D (bispecific antibody, V domains shown)
VH 1: QVQLVESGGGVVQPGRSLRLSCTASGFTFSSYAMYWVRQAPGKGLEWVSVIYYDGSYKYYADSVKGRFTISRDNSKNTLYLQMDSLRAEDTAVYYCASYNWNYWYFDFWGRGTLVTVSS
VH 2: EVQLVESGGGLVQPGGSLRLSCAASGLTFSSYEMNWVRQAPGKGLEWVSHISSAGSTKYYADSVKGRFTISRDNAKNSLFLQMNSLRAEDTAIYYCAGYNYAYYYFGVDVWGQGTTVTVSS
VL: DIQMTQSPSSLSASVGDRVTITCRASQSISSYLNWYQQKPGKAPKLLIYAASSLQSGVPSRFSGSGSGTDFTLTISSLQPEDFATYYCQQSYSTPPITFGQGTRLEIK
notes: as for B1
100 nM hGP130-MMH Bound (RU) [1]: 31 RU | Kd [1]: 0.019 µM | koff [1]: 0.00329 s⁻¹ | kon [1]: 173000 M⁻¹ s⁻¹ | t½ [1]: 4 min | 100 nM mfGP130-MMH Bound (RU) [2]: 28 RU | Kd [2]: 0.0312 µM | koff [2]: 0.00374 s⁻¹ | kon [2]: 120000 M⁻¹ s⁻¹ | t½ [2]: 3.1 min | 100 nM hGP130-MMH Bound (RU) [3]: 37 RU | Kd [3]: 0.0175 µM | koff [3]: 0.00622 s⁻¹ | kon [3]: 356000 M⁻¹ s⁻¹ | t½ [3]: 1.9 min | 100 nM mfGP130-MMH Bound (RU) [4]: 33 RU | Kd [4]: 0.0216 µM | koff [4]: 0.00715 s⁻¹ | kon [4]: 332000 M⁻¹ s⁻¹ | t½ [4]: 1.6 min

B3: bsAb19147D (bispecific antibody, V domains shown)
VH 1: QVQLVESGGGVVQPGRSLRLSCTASGFTFSSYAMYWVRQAPGKGLEWVSVIYYDGSYKYYADSVKGRFTISRDNSKNTLYLQMDSLRAEDTAVYYCASYNWNYWYFDFWGRGTLVTVSS
VH 2: EVQLVESGGGLVQPGGSLRLSCTASGFTFSNYAIFWVRQAPGKGLEYVSGISNNGVTKYYADSVRDRFTISRDNSRNTVSIQMDSLRTEDMAVYYCARENWGSDDGFDIWGQGTMVTVSS
VL: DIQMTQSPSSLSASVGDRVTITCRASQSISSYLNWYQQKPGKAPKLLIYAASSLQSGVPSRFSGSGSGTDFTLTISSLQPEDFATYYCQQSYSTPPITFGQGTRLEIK
notes: as for B1
100 nM mfGP130-MMH Bound (RU) [2]: 5 RU | 100 nM mfGP130-MMH Bound (RU) [4]: 3 RU | binding result [4]: no binding (tested: 100 nM)

B4: bsAb19143D (bispecific antibody, V domains shown)
VH 1: QVQLVESGGGVVQPGRSLRLSCTASGFTFSSYAMYWVRQAPGKGLEWVSVIYYDGSYKYYADSVKGRFTISRDNSKNTLYLQMDSLRAEDTAVYYCASYNWNYWYFDFWGRGTLVTVSS
VH 2: QLQLQESGPGLVKPSETLSLICTVSGGSISSNNYYWGWIRQPPGKGLEWIGNLYGSGSTYYNPSLKSRVTISVDTSKNQFSLKLSFVTAADTAVYHCARWDTNGGAFDIWGQGTMVTVSS
VL: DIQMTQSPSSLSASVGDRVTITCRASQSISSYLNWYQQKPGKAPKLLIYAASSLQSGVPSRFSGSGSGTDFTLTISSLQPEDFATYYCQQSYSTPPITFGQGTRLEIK
notes: as for B1
100 nM hGP130-MMH Bound (RU) [1]: 16 RU | Kd [1]: 0.0202 µM | koff [1]: 0.000647 s⁻¹ | kon [1]: 32000 M⁻¹ s⁻¹ | t½ [1]: 18 min | 100 nM mfGP130-MMH Bound (RU) [2]: 10 RU | Kd [2]: 0.043 µM | koff [2]: 0.0013 s⁻¹ | kon [2]: 30100 M⁻¹ s⁻¹ | t½ [2]: 9 min | 100 nM hGP130-MMH Bound (RU) [3]: 27 RU | Kd [3]: 0.0446 µM | koff [3]: 0.00212 s⁻¹ | kon [3]: 47600 M⁻¹ s⁻¹ | t½ [3]: 5 min | 100 nM mfGP130-MMH Bound (RU) [4]: 14 RU | Kd [4]: 0.0579 µM | koff [4]: 0.00396 s⁻¹ | kon [4]: 68300 M⁻¹ s⁻¹ | t½ [4]: 2.9 min

B5: bsAb19140D (bispecific antibody, V domains shown)
VH 1: QVQLVESGGGVVQPGRSLRLSCTASGFTFSSYAMYWVRQAPGKGLEWVSVIYYDGSYKYYADSVKGRFTISRDNSKNTLYLQMDSLRAEDTAVYYCASYNWNYWYFDFWGRGTLVTVSS
VH 2: QVQLQESGPGLVKPSETLSLTCTVSGGSISNYYWTWIRQPPGKGLEWIGHISNSGTTNYNPSLKSRVTISVDTSKNQFSLKLTSVTAADTAVYYCARLPLGIAAVDTDYYYYFGMDVWGQGTTVTVSS
VL: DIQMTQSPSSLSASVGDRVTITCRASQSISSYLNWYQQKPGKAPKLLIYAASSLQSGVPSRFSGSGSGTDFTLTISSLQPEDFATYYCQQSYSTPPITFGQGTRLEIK
notes: as for B1
100 nM hGP130-MMH Bound (RU) [1]: 23 RU | Kd [1]: 0.105 µM | koff [1]: 0.0477 s⁻¹ | kon [1]: 455000 M⁻¹ s⁻¹ | t½ [1]: 0.2 min | 100 nM mfGP130-MMH Bound (RU) [2]: 20 RU | Kd [2]: 0.136 µM | koff [2]: 0.0546 s⁻¹ | kon [2]: 402000 M⁻¹ s⁻¹ | t½ [2]: 0.2 min | 100 nM hGP130-MMH Bound (RU) [3]: 19 RU | Kd [3]: 0.144 µM | koff [3]: 0.12 s⁻¹ | kon [3]: 829000 M⁻¹ s⁻¹ | t½ [3]: 0.1 min | 100 nM mfGP130-MMH Bound (RU) [4]: 14 RU | Kd [4]: 0.183 µM | koff [4]: 0.146 s⁻¹ | kon [4]: 797000 M⁻¹ s⁻¹ | t½ [4]: 0.1 min

B6: bsAb19144D (bispecific antibody, V domains shown)
VH 1: QVQLVESGGGVVQPGRSLRLSCTASGFTFSSYAMYWVRQAPGKGLEWVSVIYYDGSYKYYADSVKGRFTISRDNSKNTLYLQMDSLRAEDTAVYYCASYNWNYWYFDFWGRGTLVTVSS
VH 2: QVQLVQSGAEVKKPGASVKVSCKASGYTFTSLGISWVRQAPGQGLEWMGWISAYSGNRDYAQKFQGRVTMTTDTSTSTAYMELRSLRSDDTAVYYCARSLRFDYWGQGTLVTVSS
VL: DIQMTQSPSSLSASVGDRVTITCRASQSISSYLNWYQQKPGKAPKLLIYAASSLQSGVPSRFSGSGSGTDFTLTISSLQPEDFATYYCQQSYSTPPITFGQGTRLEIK
notes: as for B1
100 nM hGP130-MMH Bound (RU) [1]: 27 RU | Kd [1]: 0.0121 µM | koff [1]: 0.000777 s⁻¹ | kon [1]: 64300 M⁻¹ s⁻¹ | t½ [1]: 15 min | 100 nM mfGP130-MMH Bound (RU) [2]: 27 RU | Kd [2]: 0.0134 µM | koff [2]: 0.000762 s⁻¹ | kon [2]: 56700 M⁻¹ s⁻¹ | t½ [2]: 15 min | 100 nM hGP130-MMH Bound (RU) [3]: 42 RU | Kd [3]: 0.0106 µM | koff [3]: 0.00188 s⁻¹ | kon [3]: 177000 M⁻¹ s⁻¹ | t½ [3]: 6 min | 100 nM mfGP130-MMH Bound (RU) [4]: 41 RU | Kd [4]: 0.0109 µM | koff [4]: 0.00183 s⁻¹ | kon [4]: 168000 M⁻¹ s⁻¹ | t½ [4]: 6 min

B7: bsAb19141D (bispecific antibody, V domains shown)
VH 1: QVQLVESGGGVVQPGRSLRLSCTASGFTFSSYAMYWVRQAPGKGLEWVSVIYYDGSYKYYADSVKGRFTISRDNSKNTLYLQMDSLRAEDTAVYYCASYNWNYWYFDFWGRGTLVTVSS
VH 2: EVQLVESGGGVVRPGGSLRLSCTASGFTFDDYGMSWVRQAPGKGLEWVSGINWNGGRTEYADAVKGRFIISRDNAKNSLYLQMNSLRAEDTALYFCARTELRWDYWGQGTLVTVSS
VL: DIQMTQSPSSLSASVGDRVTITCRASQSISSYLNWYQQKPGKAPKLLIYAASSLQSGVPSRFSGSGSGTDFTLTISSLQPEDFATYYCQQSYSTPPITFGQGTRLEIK
notes: as for B1
100 nM hGP130-MMH Bound (RU) [1]: 15 RU | Kd [1]: 0.219 µM | koff [1]: 0.0232 s⁻¹ | kon [1]: 106000 M⁻¹ s⁻¹ | t½ [1]: 0.5 min | 100 nM mfGP130-MMH Bound (RU) [2]: 15 RU | Kd [2]: 0.184 µM | koff [2]: 0.0207 s⁻¹ | kon [2]: 112000 M⁻¹ s⁻¹ | t½ [2]: 0.6 min | 100 nM hGP130-MMH Bound (RU) [3]: 15 RU | Kd [3]: 0.347 µM | koff [3]: 0.0621 s⁻¹ | kon [3]: 179000 M⁻¹ s⁻¹ | t½ [3]: 0.2 min | 100 nM mfGP130-MMH Bound (RU) [4]: 15 RU | Kd [4]: 0.212 µM | koff [4]: 0.0513 s⁻¹ | kon [4]: 242000 M⁻¹ s⁻¹ | t½ [4]: 0.2 min
